Data taken from the supplement of paper PMC5949888.

tested on: Saccharomyces cerevisiae PS128 hsf1 delta, HSF1(1-493) fusion; test: growth estimate (transactivation domain function in HSF1 fusion, heat-shock survival) (a.u. (slope of normalised read count over time)); higher = stronger growth at 37°C, i.e. more transactivation activity; conditions: library: design library
Summary of the method: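 The growth estimate is the slope, from a robust linear fit over time, of read counts scaled to sample totals and starting count. These counts came from Illumina MiSeq sequencing of PCR-amplified inserts, run as six barcoded replicates of one experiment. The inserts encoded designed transactivation-domain oligos fused to yeast HSF1 (amino acids 1–493) in an hsf1-deleted strain, replica-plated on –trp 5-FOA plates and incubated at 30°C or 37°C for 0, 2, 4, 6 and 8 days.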

Row | Sequence | growth estimate
1 | DLDESWDYAFETTE | < -0.25
2 | DLDESWDYIAETTE | -0.174
3 | DLDESWDYIFATTE | 1.5
4 | DLDESWDYIFEATE | 2.47
5 | DLDESWDYIFEGTE | 1.27
6 | DLDESWDYIFEKTE | -0.233
7 | DLDESWDYIFEPTE | 1.97
8 | DLDESWDYIFERTE | 0.415
9 | DLDESWDYIFETAE | 1.08
10 | DLDESWDYIFETGE | 1.44
11 | DLDESWDYIFETPE | 0.951
12 | DLDESWDYIFETRE | 0.311
13 | DLDESWDYIFETTA | 0.992
14 | DLDESWDYIFETTE | 1.92
15 | DLDESWDYIFETTG | 2.74
16 | DLDESWDYIFETTK | -0.0269
17 | DLDESWDYIFETTP | 3.58
18 | DLDESWDYIFETTR | 1.15
19 | DLDESWDYIFGTTE | 0.717
20 | DLDESWDYIFKTTE | 0.154
21 | DLDESWDYIFPTTE | 0.0438
22 | DLDESWDYIFRTTE | 0.833
23 | DLDESWDYIGETTE | -0.243

Row | Sequence | growth estimate
24 | DLDESWDYIPETTE | < -0.25
25 | DLDESWDYKFETTE | -0.178
26 | DLDESWDYRFETTE | -0.247
27 | DLDESWGYIFETTE | 0.0335
28 | DLDESWKYIFETTE | -0.0397
29 | DLDESWPYIFETTE | -0.161
30 | DLDESWRYIFETTE | 0.0438
31 | DLDGSWDYIFETTE | 0.41
32 | DLDKSWDYIFETTE | -0.196
33 | DLDPSWDYIFETTE | 0.39
34 | DLDRSWDYIFETTE | -0.214
35 | DLGESWDYIFETTE | 0.355
36 | DLPESWDYIFETTE | -0.108
37 | DLRESWDYIFETTE | -0.213
38 | DPDESWDYIFETTE | 0.0829
39 | DPDLDMLGDFDLDMLG | 4.23
40 | DPLSWIIELLEKDG | -0.102
41 | DRDLDMLGDFDLDMLG | 0.301
42 | DRLSWIIELLEKDG | < -0.25
43 | EADDEFSLWDSML | 0.306
44 | EANDLLDLDFILSN | 0.0838
45 | EDADEFSLWDSML | 0.354
46 | EDAYSILWSDVY | -0.234

Row | Sequence | growth estimate
47 | EDDAEFSLWDSML | 0.0227
48 | EDDDAFSLWDSML | 0.237
49 | EDDDEASLWDSML | < -0.25
50 | EDDDEFALWDSML | 0.128
51 | EDDDEFGLWDSML | 0.402
52 | EDDDEFKLWDSML | 0.0998
53 | EDDDEFPLWDSML | 0.199
54 | EDDDEFRLWDSML | -0.0562
55 | EDDDEFSAWDSML | -0.0271
56 | EDDDEFSGWDSML | 0.0815
57 | EDDDEFSKWDSML | -0.228
58 | EDDDEFSLADSML | -0.236
59 | EDDDEFSLGDSML | < -0.25
60 | EDDDEFSLKDSML | < -0.25
61 | EDDDEFSLPDSML | -0.126
62 | EDDDEFSLRDSML | -0.248
63 | EDDDEFSLWASML | 2.21
64 | EDDDEFSLWDGML | 0.875
65 | EDDDEFSLWDKML | -0.201
66 | EDDDEFSLWDPML | 3.13
67 | EDDDEFSLWDRML | -0.15
68 | EDDDEFSLWDSAL | < -0.25
69 | EDDDEFSLWDSGL | -0.19

Row | Sequence | growth estimate
70 | EDDDEFSLWDSKL | < -0.25
71 | EDDDEFSLWDSMA | -0.238
72 | EDDDEFSLWDSMG | -0.226
73 | EDDDEFSLWDSMK | < -0.25
74 | EDDDEFSLWDSML | 1.95
75 | EDDDEFSLWDSMP | -0.236
76 | EDDDEFSLWDSMR | -0.239
77 | EDDDEFSLWDSPL | 0.011
78 | EDDDEFSLWGSML | 1.19
79 | EDDDEFSLWKSML | < -0.25
80 | EDDDEFSLWPSML | -0.166
81 | EDDDEFSLWRSML | -0.116
82 | EDDDEFSPWDSML | -0.228
83 | EDDDEFSRWDSML | -0.0194
84 | EDDDEGSLWDSML | < -0.25
85 | EDDDEKSLWDSML | -0.0523
86 | EDDDEPSLWDSML | 0.0815
87 | EDDDERSLWDSML | < -0.25
88 | EDDDGFSLWDSML | 0.241
89 | EDDDPFSLWDSML | 2.41
90 | EDDDRFSLWDSML | -0.141
91 | EDDGEFSLWDSML | 0.47
92 | EDDKEFSLWDSML | -0.135

Row | Sequence | growth estimate
93 | EDDPEFSLWDSML | 1.77
94 | EDDREFSLWDSML | -0.175
95 | EDGDEFSLWDSML | 0.533
96 | EDGYSILWSDVY | -0.236
97 | EDKDEFSLWDSML | -0.0707
98 | EDLASILWSDVY | -0.161
99 | EDLGSILWSDVY | -0.0522
100 | EDLKSILWSDVY | < -0.25
101 | EDLPSILWSDVY | < -0.25
102 | EDLRSILWSDVY | < -0.25
103 | EDLYAILWSDVY | -0.11
104 | EDLYGILWSDVY | 0.0695
105 | EDLYKILWSDVY | -0.0738
106 | EDLYPILWSDVY | < -0.25
107 | EDLYSALWSDVY | 0.125
108 | EDLYSGLWSDVY | -0.186
109 | EDLYSIAWSDVY | < -0.25
110 | EDLYSIGWSDVY | -0.212
111 | EDLYSIKWSDVY | -0.245
112 | EDLYSILASDVY | -0.238
113 | EDLYSILGSDVY | < -0.25
114 | EDLYSILKSDVY | < -0.25
115 | EDLYSILWADVY | -0.181

Row | Sequence | growth estimate
116 | EDLYSILWGDVY | -0.152
117 | EDLYSILWKDVY | < -0.25
118 | EDLYSILWPDVY | 1.01
119 | EDLYSILWRDVY | -0.193
120 | EDLYSILWSAVY | -0.107
121 | EDLYSILWSDAY | 0.452
122 | EDLYSILWSDGY | 0.303
123 | EDLYSILWSDKY | -0.125
124 | EDLYSILWSDRY | -0.0848
125 | EDLYSILWSDVA | 0.126
126 | EDLYSILWSDVG | -0.0353
127 | EDLYSILWSDVK | 0.0539
128 | EDLYSILWSDVP | 0.204
129 | EDLYSILWSDVY | 0.971
130 | EDLYSILWSGVY | -0.0514
131 | EDLYSILWSPVY | -0.241
132 | EDLYSILWSRVY | -0.0908
133 | EDLYSIPWSDVY | -0.196
134 | EDLYSIRWSDVY | -0.219
135 | EDLYSPLWSDVY | < -0.25
136 | EDPDEFSLWDSML | 1.36
137 | EDPYSILWSDVY | 0.731
138 | EDRDEFSLWDSML | 0.0908

Row | Sequence | growth estimate
139 | EDRYSILWSDVY | -0.176
140 | EFADLLDLDFILSN | 0.75
141 | EFGDLLDLDFILSN | 0.032
142 | EFKDLLDLDFILSN | 0.512
143 | EFNDGLDLDFILSN | -0.0825
144 | EFNDKLDLDFILSN | < -0.25
145 | EFNDLADLDFILSN | 0.121
146 | EFNDLGDLDFILSN | -0.0268
147 | EFNDLLALDFILSN | -0.112
148 | EFNDLLDKDFILSN | -0.227
149 | EFNDLLDLAFILSN | -0.217
150 | EFNDLLDLDAILSN | 0.353
151 | EFNDLLDLDFALSN | 3.84
152 | EFNDLLDLDFGLSN | 4.29
153 | EFNDLLDLDFIASN | 0.58
154 | EFNDLLDLDFIGSN | 2.81
155 | EFNDLLDLDFIKSN | -0.165
156 | EFNDLLDLDFILAN | < -0.25
157 | EFNDLLDLDFILGN | 4.09
158 | EFNDLLDLDFILKN | 2.1
159 | EFNDLLDLDFILPN | 10.7
